Earlier results, collected in paper PMC1775043.

Target: hnRNP A2 (Homo sapiens) (UniProt P22626)
Assay: FCS

Kd: 0.1 nM
Substance: hnRNP A2 (from UniProt P22626)
